Literature values in paper PMC8773757.

Experiments:
[1] = molecular target: thymidylate synthase (Homo sapiens) (UniProt P04818)
p300/CBP (Homo sapiens) = p300/CBP (Homo sapiens) (UniProt Q09472)
CDC37 (Homo sapiens) = CDC37 (Homo sapiens) (UniProt Q16543)
[2] = molecular target: HIF-1α PAS-B (Homo sapiens) (UniProt Q16665)

HIF-1α, sequence (Q16665 whole entry): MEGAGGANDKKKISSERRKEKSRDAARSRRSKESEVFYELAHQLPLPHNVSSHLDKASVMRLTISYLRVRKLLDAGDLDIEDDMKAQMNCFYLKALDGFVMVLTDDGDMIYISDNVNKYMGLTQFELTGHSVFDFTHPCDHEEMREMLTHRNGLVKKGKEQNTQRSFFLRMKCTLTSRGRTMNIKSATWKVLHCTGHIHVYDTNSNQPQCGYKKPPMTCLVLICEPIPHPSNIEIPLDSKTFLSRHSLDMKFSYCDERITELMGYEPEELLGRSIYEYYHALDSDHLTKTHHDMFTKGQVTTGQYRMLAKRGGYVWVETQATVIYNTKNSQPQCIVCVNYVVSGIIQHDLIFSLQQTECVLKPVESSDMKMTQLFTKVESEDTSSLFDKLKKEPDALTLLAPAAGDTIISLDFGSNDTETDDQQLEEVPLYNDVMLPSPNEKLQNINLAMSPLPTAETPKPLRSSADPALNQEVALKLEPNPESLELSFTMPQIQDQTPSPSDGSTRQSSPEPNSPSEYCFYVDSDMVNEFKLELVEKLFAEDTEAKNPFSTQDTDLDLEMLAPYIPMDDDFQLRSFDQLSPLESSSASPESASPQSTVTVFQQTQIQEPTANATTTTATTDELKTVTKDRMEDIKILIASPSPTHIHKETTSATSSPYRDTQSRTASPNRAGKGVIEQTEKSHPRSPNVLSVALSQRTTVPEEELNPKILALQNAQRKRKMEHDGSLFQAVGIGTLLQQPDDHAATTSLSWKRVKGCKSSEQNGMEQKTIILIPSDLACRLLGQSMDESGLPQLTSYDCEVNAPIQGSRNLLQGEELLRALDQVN
UniProt Q09472, sequence (Q09472 2-2414): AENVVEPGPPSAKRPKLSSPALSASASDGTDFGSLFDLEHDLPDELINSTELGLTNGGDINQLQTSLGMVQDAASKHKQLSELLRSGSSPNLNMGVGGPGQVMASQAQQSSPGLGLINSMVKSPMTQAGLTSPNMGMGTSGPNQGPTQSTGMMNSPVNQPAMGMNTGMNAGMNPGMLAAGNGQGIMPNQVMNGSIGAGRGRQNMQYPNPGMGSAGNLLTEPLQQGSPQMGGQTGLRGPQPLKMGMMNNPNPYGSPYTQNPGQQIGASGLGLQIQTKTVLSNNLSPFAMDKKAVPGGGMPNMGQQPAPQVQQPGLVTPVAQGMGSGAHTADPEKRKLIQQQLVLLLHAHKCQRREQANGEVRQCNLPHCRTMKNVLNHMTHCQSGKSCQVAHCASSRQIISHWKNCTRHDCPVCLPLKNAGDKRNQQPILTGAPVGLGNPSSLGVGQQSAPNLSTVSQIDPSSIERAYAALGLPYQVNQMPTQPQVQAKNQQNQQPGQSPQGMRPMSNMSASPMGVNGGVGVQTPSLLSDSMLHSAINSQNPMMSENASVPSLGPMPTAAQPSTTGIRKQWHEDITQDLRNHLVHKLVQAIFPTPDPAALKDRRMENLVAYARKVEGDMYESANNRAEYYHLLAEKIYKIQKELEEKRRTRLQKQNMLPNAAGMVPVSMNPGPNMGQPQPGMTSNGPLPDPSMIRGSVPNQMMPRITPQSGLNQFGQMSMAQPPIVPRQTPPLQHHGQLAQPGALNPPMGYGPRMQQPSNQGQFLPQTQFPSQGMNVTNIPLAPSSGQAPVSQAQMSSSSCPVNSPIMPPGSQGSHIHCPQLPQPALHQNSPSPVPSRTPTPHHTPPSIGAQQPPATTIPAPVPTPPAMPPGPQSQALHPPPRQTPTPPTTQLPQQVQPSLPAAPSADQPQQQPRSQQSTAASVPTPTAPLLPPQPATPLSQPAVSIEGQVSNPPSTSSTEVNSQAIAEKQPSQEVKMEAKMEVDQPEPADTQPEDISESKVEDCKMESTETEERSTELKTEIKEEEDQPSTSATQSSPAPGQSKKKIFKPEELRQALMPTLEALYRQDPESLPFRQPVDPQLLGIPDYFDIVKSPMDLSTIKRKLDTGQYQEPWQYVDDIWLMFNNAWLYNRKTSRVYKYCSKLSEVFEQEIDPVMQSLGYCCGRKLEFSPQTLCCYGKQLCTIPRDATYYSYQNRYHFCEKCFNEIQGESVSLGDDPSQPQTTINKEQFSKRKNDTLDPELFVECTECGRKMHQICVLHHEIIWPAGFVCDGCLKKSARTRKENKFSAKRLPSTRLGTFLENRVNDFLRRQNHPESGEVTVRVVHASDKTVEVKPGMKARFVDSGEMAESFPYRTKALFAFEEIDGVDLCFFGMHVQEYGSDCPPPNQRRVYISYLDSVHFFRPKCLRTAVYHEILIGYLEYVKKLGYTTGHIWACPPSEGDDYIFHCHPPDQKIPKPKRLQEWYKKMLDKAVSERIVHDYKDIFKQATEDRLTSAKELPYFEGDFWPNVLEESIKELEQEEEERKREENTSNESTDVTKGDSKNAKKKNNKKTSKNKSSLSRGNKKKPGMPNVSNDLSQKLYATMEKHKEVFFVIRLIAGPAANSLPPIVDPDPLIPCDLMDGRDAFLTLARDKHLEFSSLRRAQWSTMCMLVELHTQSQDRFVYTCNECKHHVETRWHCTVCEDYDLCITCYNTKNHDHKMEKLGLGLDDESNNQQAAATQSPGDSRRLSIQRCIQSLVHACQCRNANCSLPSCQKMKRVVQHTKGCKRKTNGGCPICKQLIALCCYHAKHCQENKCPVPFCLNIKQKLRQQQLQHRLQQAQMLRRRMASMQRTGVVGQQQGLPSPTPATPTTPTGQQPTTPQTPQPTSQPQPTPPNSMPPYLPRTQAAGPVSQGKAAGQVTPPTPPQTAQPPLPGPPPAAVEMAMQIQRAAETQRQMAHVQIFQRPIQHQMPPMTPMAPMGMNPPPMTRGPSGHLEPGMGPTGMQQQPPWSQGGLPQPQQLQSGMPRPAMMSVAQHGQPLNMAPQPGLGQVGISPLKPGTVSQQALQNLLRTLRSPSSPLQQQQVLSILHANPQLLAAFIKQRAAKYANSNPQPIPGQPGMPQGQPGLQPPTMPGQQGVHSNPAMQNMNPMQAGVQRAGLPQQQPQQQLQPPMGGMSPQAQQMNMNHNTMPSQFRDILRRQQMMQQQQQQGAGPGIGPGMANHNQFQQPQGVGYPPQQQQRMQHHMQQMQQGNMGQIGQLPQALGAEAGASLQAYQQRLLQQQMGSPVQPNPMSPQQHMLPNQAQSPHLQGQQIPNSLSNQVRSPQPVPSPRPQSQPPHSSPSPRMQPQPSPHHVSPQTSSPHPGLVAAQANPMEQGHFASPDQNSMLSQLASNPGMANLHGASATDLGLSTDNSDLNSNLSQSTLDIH
UniProt Q16543, sequence (Q16543 2-378): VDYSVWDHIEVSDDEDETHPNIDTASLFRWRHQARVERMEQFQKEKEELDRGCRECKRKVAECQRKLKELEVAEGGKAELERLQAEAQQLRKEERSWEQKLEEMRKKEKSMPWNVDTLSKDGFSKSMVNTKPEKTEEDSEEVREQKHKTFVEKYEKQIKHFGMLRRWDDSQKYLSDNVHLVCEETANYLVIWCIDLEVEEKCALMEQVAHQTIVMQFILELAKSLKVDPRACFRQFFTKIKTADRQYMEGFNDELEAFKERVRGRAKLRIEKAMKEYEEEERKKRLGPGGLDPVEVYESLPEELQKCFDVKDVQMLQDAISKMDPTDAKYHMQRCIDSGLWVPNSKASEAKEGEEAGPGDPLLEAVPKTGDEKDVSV

For “thymidylate synthase (from UniProt P04818)”, the Kd [1] is listed as 200 nM.

For HIF-1α (from UniProt Q16665), the Kd (p300/CBP (Homo sapiens)) is listed as 7 nM.

In the case of HSP90 (from UniProt P07900), the Kd (CDC37 (Homo sapiens)) is given as 100000 nM.

For cyclo-CLLFVY, the Kd [2] is given as 124 nM.
